Earlier results on one substance are cited in PMC4459106.

For the data set, the target named is KIM15-31 (HePTP) 15-31 (Homo sapiens) (UniProt P35236).

In the case of ppERK2 (from UniProt P63086), the Kd (as a rule, the equilibrium constant for the complex coming apart) is 1300 nM.
